From the RNAGym collection of RNA variant scans (doi:10.1073/pnas.2313332121) come the findings set out here.

The chains are these.
B1: TPR t1 (parent)
chain: GACCAAUCUGCCCUCAGAGCUCGAGAACAUCUUCGGAUGCAGAGGAGGCAGGCUUCGGUGGCGCGAUAGCGCCAACGUCCUCAACCUCCAAUGCAUCCCACCACAUGAUGAUGCCUGAAGAGCCUUGGUUUUUUG

The variants in the data set derive from B1. Briefly: polymerase ribozyme fitness, log enrichment relative to wild type (log ratio); higher = more active; in vitro selection for triplet polymerase activity. An outline of the steps:
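Mutant libraries were PCR-built and transcribed for each subunit of a heterodimeric triplet polymerase ribozyme and selected for one round in triplicate at −7 °C, frozen, before gel excision of extended constructs and streptavidin-bead capture. Input and output libraries were Illumina-sequenced, keeping genotypes with ≥10 input reads and ≥1 read per output. Fitness is a logarithmic ratio of genotype to wild-type enrichment, in base 2, using inverse-variance-weighted replicate averages.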
As for GACCAAUCUGCGCUCAGAGCUCGAGAACAUCUUCGGAUGCAGAGGAGGCAGGCUUCGGUGGCGCGAUAGCGGCAACGUCCUCAACAUCCAAAGCAUCCCACCACAUGAUUAUGCCUGAAGAGCCUUGGUUUUUUG [C12G C72G C86A U92A G110U], the “polymerase ribozyme fitness (log ratio)” value was -4.84. Consider GACCAAUCUGCGCUCAGAGCUCGAGAACAUCUUCGGAUGCAGAGGAGGCAGGCUUGGGUGGCGCGAUAGCGCCAACGUCCUCAACCUCCAAUGCAUCCCACCACAUGAUGAUGCCUGAAGAGCCUUGGUUUUUUG [C12G C56G], for which the “polymerase ribozyme fitness (log ratio)” value was -1.05. For the variant GACCAAUCUGCGCUCAGAGCUCGAGAACAUCUUCGGAUGCAGAGGAGGCAGGCUUCGGUGGCGCGAUAGCGGCAACGUCCUCAACCUCCAAUGCAUCCCACCACAUGAUGAUGCCUGAAGAGCCUUGGUUUUUUG [C12G C72G], the “polymerase ribozyme fitness (log ratio)” value turned out to be 0.202.

For GACCAAUCUGCGCUCAGAGCUCGAGAACAUCUUCGGAUGCAGAGGAGGCAGGCUUCGGUGGGGCGAUAGCGCCAACGUCCUCAACCUCCAAUGCAUCCCACCACAUGAUGAUGCUUGAAGAGCCUUGGUUUUUUG [C12G C62G C115U], the “polymerase ribozyme fitness (log ratio)” value is -3.7.

In the case of GACCAAUCUGCGCUCAGAGCUCGAGAACAUCUUCGGAUGCAGAGGAGGCAGGCUUCGGUGGCGCGAUAGAGCCAUCGUCCUCAACCUCCAAUGCAUCCCACCACAUGAUGAAUCCUGAACAGCCUUGGUUUUGUG [C12G C70A A75U U112A G113U G120C U133G], the “polymerase ribozyme fitness (log ratio)” value was -2.57. The result for GACCAAUCUGCGCUCAGAGCUCGAGAACAUCUUCGGAUGCAGAGGAGGCAGGCUUUGGUGGCGCGAUAGCGCCGACCUCCUCAACCUCCAAUGCAUCCCACCACAUGAUGAUGCCUGAAGAGCCUUGGUUUUUUG [C12G C56U A74G G77C] reads -1.66; that for GACCAAUCUGCGCUCAGAGCUCGAGAACAUCUUCGGAUGCAGAGGAGGCAGGCUUCGGUGGCGUGAUAGCGCUAACGUCCUCAACCUCCAAUGCAUCCCACCACAUGAUGAUGCCUGAAGAGCCUUGGUUGUUUG [C12G C64U C73U U131G], -0.0751.

On to GACCAAUCUGCGCUCAGAGCUCGAGAACAUCUUCGGAUGCAGAGGAGGCAGGCUUCGGUGGCGUGAUAGCGCCAACGUCCUCAACCUCCAAUGCAUCCCACCACAUGAUGAUGCCUGAAGAGCCUUGGUUUUAUG [C12G C64U U133A], for which the “polymerase ribozyme fitness (log ratio)” value is -0.644.

GACCAAUCUGCGCUCAGAGCUCGAGAACAUCUUCGGAUGCAGAGGAGGCAGGCUUCGGUGGCGAGAUAGCGCCAACGUCCUCAACCUCCAAUGCAUCCCACCACAUGAUGAUGCCUGAAGAACCUUGGUUUUUUG [C12G C64A G122A]: the “polymerase ribozyme fitness (log ratio)” value is -6.12. The result for GACCAAUCUGCGCUCAGAGCUCGAGAACAUCUUCGGAUGCAGAGGAGGCAGGCUUCGGUGGGGCGAUAGCGCCAACGUCCUAAACCUCCAAUGCAUCCCACCACAUGAUGAUGCCUGAAGAGCCUUGGUUUUUUG [C12G C62G C82A] reads -1.16. As to GACCAAUCUGCGCUCAGAGCUCGAGAACAUCUUCGGAUGCAGAGGAGGCAGGCUUUGGUGGCGCGAUAGCGCCAACGACCUCAACCUCCCAUGCAUCCCACCACAUGAUGAUGUCUGAAGAGCCUUGGUUUUUUG [C12G C56U U78A A90C C114U], the “polymerase ribozyme fitness (log ratio)” value was -2.46. Under GACCAAUCUGCGCUCAGAGCUCGAGAACAUCUUCGGAUGCAGAGGAGGCAGGCUUAGGUGGCGCGAUAGCGCCAACGUCCUAAACCUCCAAUGCAUCCCACCACAUGAUGAUGCCUGAAGAGCCUUGGUUUUUUG [C12G C56A C82A] stands -0.693. Under GACCAAUCUGCGCUCAGAGCUCGAGAACAUCUUCGGAUGCAGAGGAGGCAGGCUUCGGUGGUGCGAUAGCGCCAACGUCCUCAACCUCAAAUGUAUCCCACCACAUGAUGAUGCCUGAAGAGCCUUGGUUUUUUG [C12G C62U C89A C94U] stands -2. The result for GACCAAUCUGCGCUCAGAGCUCGAGAACAUCUUCGGAUGCAGAGGAGGCAGGCUUCGGUGGUGCGAUAGCGCCAACGUCCUCAACCUCCAAUGCAUCCCACCACCUGAUGAUGCCUGAAGAGCCUUGGUUUUUUG [C12G C62U A105C] reads -2.46. For the variant GACCAAUCUGCGCUCAGAGCUCGAGAACAUCUUCGGAUGCAGAGGAGGCAGGCUUCGGUGGGGCGAUAGCGCCAGCGUCCUCAACCCCCAAUGCAUCCCACCACAUGAUGAUGCCUGAAGAGCCUUGGUUUUUUG [C12G C62G A75G U87C], the “polymerase ribozyme fitness (log ratio)” value is -3.99. As to GACCAAUCUGCGCUCAGAGCUCGAGAACAUCUUCGGAUGCAGAGGAGGCAGGCUUCGGUGGGGCGAUAGCGCCAACGUCCUCAACCUCCAAUGCAUCCCACCACAUGAUGAUGCCUGAAGAGCCUUGGUUUUUUG [C12G C62G], the “polymerase ribozyme fitness (log ratio)” value was -1.6. The result for GACCAAUCUGCGCUCAGAGCUCGAGAACAUCUUCGGAUGCAGAGGAGGCAGGCUUCGGUGGGGCGAUAGCGGCAACGUCCUCAACCACCAAUGCAUCCCACCACAUGAUGAUUCCUGAAGAGCCGUGGUUUUUUG [C12G C62G C72G U87A G113U U125G] reads -5.49; that for GACCAAUCUGCGCUCAGAGCUCGAGAACAUCUUCGGAUGCAGAGGAGGCAGGCUUCGGUGGCGGGAUAGCGCCAACGUCCUCAACCUCCAAUGCAUCCCACCACAUGAUGAUGCCUGAAGAGGCUUGGUUUUUUG [C12G C64G C123G], -6.23. The result for GACCAAUCUGCGCUCAGAGCUCGAGAACAUCUUCGGAUGCAGAGGAGGCAGGCUUCGGUGGGGCGAUAGCGCCAACGUCCUCAACCUCCAAUGCAUCCGACCACAUGAUGAUGCCUGAAGAGCAUUGGUUUUUUG [C12G C62G C99G C124A] reads -7.37; that for GACCAAUCUGCGCUCAGAGCUCGAGAACAUCUUCGGAUGCAGAGGAGGCAGGCUUCGGUGGCGCGAUAGAGCCAACGUCCUCAACCUCCAAUGCAUCCCACCACAUGAUGAUGCCUGGAGAGCCUUGGUUUUUUG [C12G C70A A118G], -0.792; that for GACCAAUCUGCGCUCAGAGCUCGAGAACAUCUUCGGAUGCAGAGGAGGCAGGCUUCGGUGGCGUGAUAGCGCCAUCGUCCUCAACCUCCAAUGCAUCCCACCACAUGAUGAUGCCGGAAGAACGUUGGUUUUUUG [C12G C64U A75U U116G G122A C124G], 0.593.
